From US10378034B2, “Use of a N-acetylneuraminate lyase derived from the bacterium Aliivibrio salmonicida in the production of neuraminic acid and derivatives thereof” (Universitetet i Tromsø-Norges Arktiske Universitet, priority 2014, dated 2019)

What was measured:
Assay type in all cases: biochemical
[1] = Temperature shift experiment on production yield of Neu5Ac; conditions: shifting reaction temperature from 23° C. to 4° C.; 50 mM pyruvate, 5 mM ManNAc
Experimental: The effect of substrate ratio on the conversion yield of Neu5Ac was studied by varying the pyruvate concentration while the concentration of ManNAc was kept constant. The pyruvate concentration ranged from 2.5 to 70 mM, whereas the ManNAc concentration was 5 mM, resulting in a pyruvate:ManNAc ratio ranging from 0.5 to 14. The condensation reaction mixture containing different ratios of pyruvate and ManNAc along with 124 mM HEPES buffer pH 8.0 and enzyme was incubated at room temperature for 7.5 h. […] Thus, a temperature shift experiment was carried out to see how much the Neu5Ac production could be increased by altering the equilibrium once it had been achieved. For a temperature shift experiment, the reaction mixture (enzyme, 50 mM pyruvate, 5 mM ManNAc, 124 mM HEPES buffer pH 8.0) was incubated at room temperature for 7.5 h and after reaching equilibrium it was shifted to 4° C. and incubated for 15 h. As a control, one reaction was kept at room temperature and another at 4° C. for all the time. The difference in yield between the temperature shifted and non-shifted reactions were calculated. The standard TBA assay was used to assess the activity.

[2] = Comparative specific activity, condensation reaction (TBA assay)
Experimental: Both the condensation and cleavage activities of NAL were assessed using the modified thiobarbituric acid (TBA) assay developed by Aminoff (1961) and Warren (1959). The condensation activity was determined by incubating 50 μl of a reaction mixture containing 15 mM sodium pyruvate, 15 mM ManNAc, 124 mM HEPES pH 8.0 and different concentrations of enzyme depending on assay type at selected temperatures for the required amount of time. The reaction was terminated by adding 137 μl 2.5 mg/ml sodium periodate in 57 mM H2SO4, followed by incubation at 37° C. for 15 min with shaking at 1350 rpm. Sodium arsenite (50 μl, 25 mg/ml sodium arsenite in 0.5 M HCl) was added resulting in brown color. The tubes were shaken manually until the brown color disappeared. 2-thiobarbituric acid solution (100 μl, 71 mg/ml adjusted to pH 9.0) was subsequently added, and the tubes were incubated in boiling water for 7.5 min. The tubes were incubated on ice for 5 min and allowed to remain at room temperature for 5 min. The red chromophore was extracted by addition of acidic butanol (1 ml of acidic butanol with 5% HCl) and horizontal shaking for 10 min. Tubes were centrifuged at 16060×g, 7 min (room temperature) to separate the organic and inorganic phases. The organic phase containing the red chromophore (200 μl) was used for measurement of absorbance at 549 nm in a spectrophotometer (SpectraMax M2e, Molecular Devices). The amount of Neu5Ac produced was inferred from a standard curve. To generate a standard curve, different concentrations of Neu5Ac (0.031 mM-1 mM) were treated with 137 μl of 2.5 mg/ml sodium periodate in 57 mM H2SO4 and the TBA assay procedure was followed as described above.
Standard reaction mixtures were incubated at room temperature for 1 h before being subjected to the TBA assay.

[3] = Integrated reaction: Neu5Ac production from GlcNAc and pyruvate at alkaline pH (TBA assay)
Experimental: For ManNAc reactions, the buffer used was HEPES, pH 8.0. […] Experiments were performed in triplicate. For ManNAc experiments, aliquots were sampled after 0.5, 1.0, 1.5, 2.5 and 4.0 h. For GlcNAc experiments, aliquots were sampled after 12, 24, 36, 48 and 72 h. Reactions were terminated by addition of 2 μl concentrated H2SO4. The time needed for N-acetylneuraminic acid (Neu5Ac) production to get started under these conditions was known to take longer time based on initial test experiments. The thiobarbituric acid (TBA) assay procedure was followed to determine the amount of Neu5Ac produced. The activity was corrected for a blank value. The blank contained all the reaction components except for enzyme.
Initially, also glycine buffer was tested at pH 10.5 and pH 11.0 for the reactions with GlcNAc. GlcNAc will chemically epimerize to ManNAc at pH values above 9.0, which the enzyme will use as substrate for the production of Neu5Ac. The epimerization is pH dependent and will increase with increasing pH. Production of Neu5Ac was higher in CAPS buffer compared to glycine buffer, so this was chosen for further experiments.

B1: AsNAL: N-acetylneuraminate lyase isolated from the psychrophilic bacterium Aliivibrio salmonicida LFI1238, recombinantly expressed in E. coli (protein, listed as Aliivibrio salmonicida)
chain: MKKLTGLIAAPHTPFDSSSNVNFEEIDKIAKHLINDGVKGIYVCGTTGEGIHCSVEERKAIAERWVSACNHKLDIIVHTGALSIVDTLELTRHADTLDILATSAIGPCFFKPGSVSDLVEYCATIAAAAPSKGFYYYHSGMSGVNLNMEEFLIQADKRIPNLSGLKFNSGDLYEYQRCLRACDGKFDVPFGVDEFLPGALAVGAKSAVGSTYNYAAPHFNSIIEAFNKGDHDAVFNKMTNVIELIRVLVEFGGVAAGKIAMELHDINAGDPRLPLMPLSAEQKLTVVEKMRAANFLK
[1]
  increase in yield of Neu5Ac: 30%
[2]; 4° C.
  specific activity of the condensation reaction, higher than EcNAL: 40%
[2]; 23° C.
  specific activity of the condensation reaction, higher than EcNAL: 60%
[2]; 37° C.
  specific activity of the condensation reaction, higher than EcNAL: 40%
[3]; pyruvate and GlcNAc 4:1, CAPS pH 11.0, 48 h
  production of Neu5Ac relative to highest amount obtained with pyruvate and ManNAc 4:1 at pH 8.0: around 60%
[3]; pyruvate and GlcNAc, CAPS pH 11.5
  production of Neu5Ac (in words): able to produce Neu5Ac in the same range as at pH 11.0
